The target in this experiment is T1, BACE1 (UniProt P56817 46-501, limits assumed).
T1 construct: Detected as monomer and dimer in the co-immunoprecipitates; also called β-secretase
Nature of the experiment: co-immunoprecipitation from HEK 293 lysates with nectin-1 cytoplasmic specific antibody, anti-BACE1 Western blot. Here is the method: To define the minimal region within the ectodomain of nectin-1 required for BACE1 interaction, immunoprecipitations between the nectin-1 truncation mutants and BACE1 were performed. BACE1 and full length or truncated nectin-1 were co-expressed in HEK 293 cells and harvested 48 hr. after transfection. To confirm to the efficiencies of the co-transfections, equal volumes of cell lysate were loaded on SDS-PAGE gels and analyzed by Western blot. Transfection efficiency was similar for nectin-1 and its derivates (FIG. 10A) and BACE1 (FIG. 10B). Immunoprecipitation was performed with a nectin-1 cytoplasmic specific antibody and precipitates were analyzed on two separate 10% SDS-PAGE. Western blots were probed with anti-nectin-1 (FIG. 10C) or anti-BACE1 (FIG. 10D) antibodies. The nectin-1 antibody directly immunoprecipitated the respective nectin-1 polypeptides and processed CTFs (FIG. 10C). Furthermore, BACE1, both monomer and dimer, was immunoprecipitated by the nectin-1 antibody, confirming the association of BACE1 with nectin-1. Two truncation mutants Δ28-250 and Δ28-300, interacted with BACE1 very strongly.
In general terms: In western blotting, separated proteins are transferred to a membrane and probed.

T1 sequence (P56817 46-501 limits assumed): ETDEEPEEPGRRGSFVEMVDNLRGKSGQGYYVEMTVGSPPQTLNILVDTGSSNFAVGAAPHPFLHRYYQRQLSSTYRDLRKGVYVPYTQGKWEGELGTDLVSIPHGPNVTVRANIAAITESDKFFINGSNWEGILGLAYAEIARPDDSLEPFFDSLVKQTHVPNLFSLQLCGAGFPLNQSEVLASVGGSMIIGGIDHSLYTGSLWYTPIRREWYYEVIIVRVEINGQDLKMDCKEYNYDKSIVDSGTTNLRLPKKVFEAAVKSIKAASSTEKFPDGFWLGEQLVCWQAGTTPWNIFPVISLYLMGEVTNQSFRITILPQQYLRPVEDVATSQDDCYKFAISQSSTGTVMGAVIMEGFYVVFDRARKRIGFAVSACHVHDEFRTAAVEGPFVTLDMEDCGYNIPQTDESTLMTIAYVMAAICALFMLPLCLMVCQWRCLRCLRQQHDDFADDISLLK

B1: nectin-1 truncation mutant Δ28-349 (receptor)
chain: PTAIIGGVAGSILLVLIVVGGIVVALRRRRHTFKGDYSTKKHVYGNGYSKAGIPQHHPPMAQNLQYPDDSDDEKKAGPLGGSSYEEEEEEEEGGGGGERKVGGPHPKYDEDAKRPYFTVDEAEARQDGYGDRTLGYQYDPEQLDLAENMVSQNDGSFISKKEWYV
notes: see m5; not shown: flag tag at the C-terminus
B1: the binding result is recorded as “no binding”.

The values above are taken from patent US20100285597A1 (UNIVERSITY OF ROCHESTER, published 2010).
